Tested on: MS2 coat protein
Experiment: apparent KD of MS2 coat protein; designed switch direction (-1 OFF switch, 1 ON switch): -1; higher = weaker reporter binding
Outline: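 Designed RNA switches were transcribed on Illumina chips by stalled E. coli RNA polymerase and titrated with SNAP-549-labelled MS2 coat protein from 0.7 or 1.5 nM, doubling to 3 µM. Step length ran from 0.8–1.5 h at the lowest concentration to 10–20 min at the highest. The apparent KD is the median over clusters for each design, from curve-fitted normalised cluster fluorescence.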

[1] = input ligand: microRNA oligo, concentration not stated
[2] = Eterna round: R95, input ligand: FMN 200 uM
[3] = Eterna round: R95, input ligand: microRNA oligo, concentration not stated
[4] = Eterna round: R95, input ligand: none

Sequence: AACCUGAGGCUUUGCUUUAGGUGUACAUGAGGAUCACCCAUGUAGGAUAUGGUAGGCUUUGCUUACCAGAAGGACAUUAUGAUU [JL ENG3 1.18] (Eterna round: R96, puzzle: Exclusion NG 3)
- apparent KD of MS2 coat protein (input ligand: FMN 200 uM): 119 nM
- apparent KD of MS2 coat protein [1]: 33.4 nM
- apparent KD of MS2 coat protein (input ligand: none): 37.1 nM

Sequence: AACGAAGCAGGAUAUACAUGAGGAUCACCCAUGUGCUUGCAUGGCGUGGGAAGUCAUAGUAGAAGGGCUACGCC [EX3 #62] (Eterna round: R97, puzzle: Exclusion 3)
- apparent KD of MS2 coat protein (input ligand: FMN 200 uM): 53.6 nM
- apparent KD of MS2 coat protein (input ligand: none): 22.1 nM

Sequence: AACGAGUGAGGAUAUCUUGACGGUUUGCAUCAGGCCCUCACAGAGAAGGCACUUGAGGAUCACCCAAGUGACCA [Eredgeinus] (Eterna round: R97, puzzle: Exclusion 4)
- apparent KD of MS2 coat protein (input ligand: FMN 200 uM): 16.5 nM
- apparent KD of MS2 coat protein (input ligand: none): 14.2 nM

Sequence: AACGUACAGCAAAGCUGUACGCGUACAUGAGGAUCACCCAUGUAGGAUAUGGUAGGCAAAGCUUACUAGAAGGAUAGAGUGAUC [Mat - Exclusion NG 3 - Mod of JL - D77] (Eterna round: R96, puzzle: Exclusion NG 3)
- apparent KD of MS2 coat protein (input ligand: FMN 200 uM): 497 nM
- apparent KD of MS2 coat protein [1]: 358 nM
- apparent KD of MS2 coat protein (input ligand: none): 333 nM

Sequence: AACUAACAUGUAGGAUAUGCGUGGCGAAGCUAUGCAGAAGGACAUGAGGAUCACCCAUGUUUUAGCGUCUGCGUACAGAUGCAU [JL ENG1 1.41] (Eterna round: R96, puzzle: Exclusion NG 1)
- apparent KD of MS2 coat protein (input ligand: FMN 200 uM): 146 nM
- apparent KD of MS2 coat protein [1]: 16.6 nM
- apparent KD of MS2 coat protein (input ligand: none): 20.8 nM

Sequence: AACUAGGCAGGAUAUACAUGAGGAUCACCCAUGUGCCAAUACAAAGGGACUAACAGAGGUAGAAGGGCCUAGAA [ChP 13.04.2015 #2] (puzzle: Exclusion 3)
- apparent KD of MS2 coat protein [2]: 155 nM
- apparent KD of MS2 coat protein [3]: 36.8 nM
- apparent KD of MS2 coat protein [4]: 34.3 nM

Sequence: AACUGAUCUUGAGGAUAUCAAACACAUGAGGAUCACCCAUGUCACGAGACGGUGCUUUCCAGGAGUGAGAAGGUAAGCAGCGAG [Eternabot solution 44] (Eterna round: R96, puzzle: Exclusion NG 2)
- apparent KD of MS2 coat protein (input ligand: FMN 200 uM): 31 nM
- apparent KD of MS2 coat protein [1]: 28 nM
- apparent KD of MS2 coat protein (input ligand: none): 37.1 nM

Sequence: AACUGGACAGGAUAUGUUCUUGAGCACUUGAGGAUCACCCAAGUCAUCAAGAACUCAGGCACAGAAGGGUUUAUGA [jl-ex5.4.60 ViennaUCT mod] (Eterna round: R97, puzzle: Exclusion 5)
- apparent KD of MS2 coat protein (input ligand: FMN 200 uM): 28.9 nM
- apparent KD of MS2 coat protein (input ligand: none): 13.4 nM

Sequence: AAGAAACAUGAGGAUCACCCAUGUCAGGAUAUCUCGAAAAGCAUAGAAAUAUGCGAAGAGAGAAGGGACUGCCC [ChP Ext 10-04-2015 #2] (puzzle: Exclusion 1)
- apparent KD of MS2 coat protein [2]: 20.8 nM
- apparent KD of MS2 coat protein [3]: 19.3 nM
- apparent KD of MS2 coat protein [4]: 19.2 nM

Sequence: AAGAAACAUGAGGAUCACCCAUGUGAGGAUAUGAAAAAGAAAAGAAAAGAAAGAAGGAUCAGAAGGCACAAAGG [salish99-ex1_r3_025] (puzzle: Exclusion 1)
- apparent KD of MS2 coat protein [2]: 43 nM
- apparent KD of MS2 coat protein [3]: 30.3 nM
- apparent KD of MS2 coat protein [4]: 34.1 nM

Sequence: AAGAAACAUGAGGAUCACCCAUGUGAGGAUAUGAAAAAGAAAAUAAAAUAAAGAAGAAUCAGAAGGCACAAAGG [Mat - Mod of Hog D4] (puzzle: Exclusion 1)
- apparent KD of MS2 coat protein [2]: 34 nM
- apparent KD of MS2 coat protein [3]: 24.9 nM
- apparent KD of MS2 coat protein [4]: 28.1 nM

Sequence: AAGAAACAUGAGGAUCACCCAUGUGAGGAUAUGACUAAGAAAAGAAAAGAAAGAAGAGUCAGAAGGCACAAAGG [salish99-ex1_r3_068] (puzzle: Exclusion 1)
- apparent KD of MS2 coat protein [2]: 215 nM
- apparent KD of MS2 coat protein [3]: 128 nM
- apparent KD of MS2 coat protein [4]: 189 nM

Sequence: AAGAAACAUGAGGAUCACCCAUGUGAGGAUAUGAGGAAGAAAAGAAAAGAAAGAAGACUCAGAAGGCACAAAGG [salish99-ex1_r3_073] (puzzle: Exclusion 1)
- apparent KD of MS2 coat protein [2]: 189 nM
- apparent KD of MS2 coat protein [3]: 49 nM
- apparent KD of MS2 coat protein [4]: 76.8 nM

Sequence: AAGAAACAUGAGGAUCACCCAUGUGAGGAUAUGAUAAAGAAAAGAAAAGAAAGAAGAUUCAGAAGGCACAAAGG [salish99-ex1_r3_034] (puzzle: Exclusion 1)
- apparent KD of MS2 coat protein [2]: 62.3 nM
- apparent KD of MS2 coat protein [3]: 39.4 nM
- apparent KD of MS2 coat protein [4]: 48.7 nM

Sequence: AAGAAACAUGAGGAUCACCCAUGUGAGGAUAUGAUGCGAAUUAUGUAUGUAGUAAGCAUCAGAAGGCACAAAGG [Mat - Mod Mix D39] (puzzle: Exclusion 1)
- apparent KD of MS2 coat protein [3]: 142 nM

Sequence: AAGAAACAUGAGGAUCACCCAUGUGAGGAUAUGAUUAAGAAAAGAAAAGAAAGAAGAUUCAGAAGGCACAAAGG [salish99-ex1_r3_054] (puzzle: Exclusion 1)
- apparent KD of MS2 coat protein [2]: 91.4 nM
- apparent KD of MS2 coat protein [3]: 72.5 nM
- apparent KD of MS2 coat protein [4]: 82.9 nM

Sequence: AAGAAACAUGAGGAUCACCCAUGUGAGGAUAUGGCCCGCCCGGCGUAAGCAAAAUAAAUCAGAAGGCACAAAGG [salish99_ex1_r4_008] (Eterna round: R97, puzzle: Exclusion 1)
- apparent KD of MS2 coat protein (input ligand: FMN 200 uM): 39.5 nM
- apparent KD of MS2 coat protein (input ligand: none): 47.2 nM

Sequence: AAGAAACAUGAGGAUCACCCAUGUGAGGAUAUGUAAAAGAAAAUAAAAUAAAUAAGAAACAGAAGGCACAAAGG [Mat - Mod of Hog D19] (puzzle: Exclusion 1)
- apparent KD of MS2 coat protein [2]: 53.2 nM
- apparent KD of MS2 coat protein [3]: 39.2 nM
- apparent KD of MS2 coat protein [4]: 44.8 nM

Sequence: AAGAAACGAGGAUAUACAAUUGAGUGAGAGAGGGAAGUGUGACAUGAGGAUCACCCAUGUAGAAGGCGUGAGAG [JR_Exclu2_Sub086] (puzzle: Exclusion 2)
- apparent KD of MS2 coat protein [2]: 116 nM
- apparent KD of MS2 coat protein [3]: 82.3 nM
- apparent KD of MS2 coat protein [4]: 80.4 nM

Sequence: AAGAAGAAACAAGCUUUUUGCACGUCAGGUAGUGACGCAACAUGAGGAUCACCCAUGUAUAGGGUGGGAAAGGAUAG [JR_SV3TOV2_Sub048] (puzzle: Sensor v3, turn-off variant 2)
- apparent KD of MS2 coat protein [2]: 34 nM
- apparent KD of MS2 coat protein [3]: 30.9 nM
- apparent KD of MS2 coat protein [4]: 303 nM

Sequence: AAGAAGCAAGGAUAUACAACGGGCCACAGAGCCGAAGGGCAACAUGAGGAUCACCCAUGUAGAAGGUGCGUAAC [Lecebeqube] (puzzle: Exclusion 2)
- apparent KD of MS2 coat protein [2]: 149 nM
- apparent KD of MS2 coat protein [3]: 30.3 nM
- apparent KD of MS2 coat protein [4]: 28.2 nM

Sequence: AAGAAGUCAGGAUAUGCUAAAGAAAUAAAAAGAAAGAAAGAACAUGAGGAUCACCCAUGUAGAAGGGACAAGAA [Seheqenre Sankhptahi] (Eterna round: R96, puzzle: Exclusion 2)
- apparent KD of MS2 coat protein [1]: 31.8 nM

Sequence: AAGAAUCAAGGAUAUGCAUGAUACGACAUGAGGAUCACCCAUGUCCUCACGCGUAUCCUUGCAGAAGGUGAGUAUA [EX5 A.22] (Eterna round: R97, puzzle: Exclusion 5)
- apparent KD of MS2 coat protein (input ligand: FMN 200 uM): 15 nM
- apparent KD of MS2 coat protein (input ligand: none): 15.3 nM

Sequence: AAGAUGCGGGUAGGAUAUGGAAAUUAAUAAAGACCAGAAGGACUGGUCACACAACAUGAGGAUCACCCAUGUGUGUGUUGUGAA [AK ExNG1-6] (Eterna round: R96, puzzle: Exclusion NG 1)
- apparent KD of MS2 coat protein [1]: 9.06 nM

Sequence: AAGCACGCGUAGGAUAUAAUCCAAACCUCGAGGUUAGAAGGACGCACAUGAGGAUCACCCAUGUUCCUAGCAUC [Eternabot (Original) Solution 19] (Eterna round: R97, puzzle: Exclusion 6)
- apparent KD of MS2 coat protein (input ligand: FMN 200 uM): 20.7 nM
- apparent KD of MS2 coat protein (input ligand: none): 17.1 nM

Sequence: AAGCGACGAGGAUAUCGGUGGCUGAACAUGAGGAUCACCCAUGUGAACCGAUGGCAGUGUCGAGAAGGUGUUGAGU [Teceenla] (puzzle: Exclusion 5)
- apparent KD of MS2 coat protein [3]: 12.3 nM

Sequence: AAGGAGUGAGGAUAUGCGCGGGCACGCUCUAAAUAAGAAAGACAUGAGGAUCACCCAUGUAGAAGGCACAAUAA [Leedla] (puzzle: Exclusion 2)
- apparent KD of MS2 coat protein [3]: 17.8 nM

Sequence: AAGGAUAGAGGAUAUACAUAGAUACAGAUUCGUGUAGAACUACAUGAGGAUCACCCAUGUAGAAGGCUAUCCUA [Fiskers Ex 2 - 7] (puzzle: Exclusion 2)
- apparent KD of MS2 coat protein [3]: 15.2 nM

Sequence: AAGGAUAGAGGAUAUACAUAGAUACAGGUUCAUGUAGAACUACAUGAGGAUCACCCAUGUAGAAGGCUAUCCUA [Fiskers Ex 2 - 8] (puzzle: Exclusion 2)
- apparent KD of MS2 coat protein [2]: 113 nM
- apparent KD of MS2 coat protein [3]: 20.8 nM
- apparent KD of MS2 coat protein [4]: 21.1 nM

Sequence: AAGGGCUGAGGAUAUGCGCGGGCAAGAUCCUCAAUCCCAAAACAUGAGGAUCACCCAUGUAGAAGGCAGAAAUA [Atedonesle] (puzzle: Exclusion 2)
- apparent KD of MS2 coat protein [3]: 28.3 nM

Sequence: AAGGGUGCUUUCAGAACGACAUGAGGAUCACCCAUGUAGACUGAGGAUAUCUACUUCUAAGGACGGGAGAAGGCAGUGUAAUGU [Ex NG3 #71] (Eterna round: R96, puzzle: Exclusion NG 3)
- apparent KD of MS2 coat protein (input ligand: FMN 200 uM): 25.5 nM
- apparent KD of MS2 coat protein [1]: 17.8 nM
- apparent KD of MS2 coat protein (input ligand: none): 22.6 nM

Sequence: AAGGUACAUGAGGAUCACCCAUGUGAGGAUAUCGUUGUUGAGUCUAGAGAUACAAUGUUGAGAAGGUACGGGUA [Eternabot (L2) Solution 94] (Eterna round: R97, puzzle: Exclusion 1)
- apparent KD of MS2 coat protein (input ligand: FMN 200 uM): 63.1 nM
- apparent KD of MS2 coat protein (input ligand: none): 61.2 nM

Sequence: AAGUCCUUGUGGACACAUGAGGAUCACCCAUGUGCGGUCAGCGAGGAUAUCGGUCUAUAAUGUGACGAGAAGGCGCGGACCGAU [Ex NG3 #61] (Eterna round: R96, puzzle: Exclusion NG 3)
- apparent KD of MS2 coat protein (input ligand: FMN 200 uM): 26.2 nM
- apparent KD of MS2 coat protein [1]: 15.3 nM
- apparent KD of MS2 coat protein (input ligand: none): 21.3 nM

Sequence: AAGUGCAAAGGAUAUACGUGACUUACUCCAAUUGCUACCCGACAUGAGGAUCACCCAUGUAGAAGGUUGCGCAC [Eternabot (Original) Solution 20] (Eterna round: R97, puzzle: Exclusion 2)
- apparent KD of MS2 coat protein (input ligand: FMN 200 uM): 34.3 nM
- apparent KD of MS2 coat protein (input ligand: none): 16.6 nM

Sequence: AAUAAACAUGAGGAUCACCCAUGUGAGGAUAUACAGAUUAUAAGAAAAAAAAAAAAAAGUAGAAGGCACAUAUA [Default title] (Eterna round: R96, puzzle: Exclusion 1)
- apparent KD of MS2 coat protein (input ligand: FMN 200 uM): 39.6 nM
- apparent KD of MS2 coat protein [1]: 29.9 nM
- apparent KD of MS2 coat protein (input ligand: none): 37.6 nM

— the supplement of paper PMC9170038
